This is an account of results in article PMC11008285 (Cell reports, 2024).

Usually stoichiometry N stands for the number of molecules, sites or subunits per partner or assembly.

This data set deals with the molecule itself.

B1: full-length CARD9 (natural protein, UniProt Q9H257 1-536, looked up)
chain: MSDYENDDECWSVLEGFRVTLTSVIDPSRITPYLRQCKVLNPDDEEQVLSDPNLVIRKRKVGVLLDILQRTGHKGYVAFLESLELYYPQLYKKVTGKEPARVFSMIIDASGESGLTQLLMTEVMKLQKKVQDLTALLSSKDDFIKELRVKDSLLRKHQERVQRLKEECEAGSRELKRCKEENYDLAMRLAHQSEEKGAALMRNRDLQLEIDQLKHSLMKAEDDCKVERKHTLKLRHAMEQRPSQELLWELQQEKALLQARVQELEASVQEGKLDRSSPYIQVLEEDWRQALRDHQEQANTIFSLRKDLRQGEARRLRCMEEKEMFELQCLALRKDSKMYKDRIEAILLQMEEVAIERDQAIATREELHAQHARGLQEKDALRKQVRELGEKADELQLQVFQCEAQLLAVEGRLRRQQLETLVLSSDLEDGSPRRSQELSLPQDLEDTQLSDKGCLAGGGSPKQPFAALHQEQVLRNPHDAGLSSGEPPEKERRRLKESFENYRRKRALRKMQKGWRQGEEDRENTTGSDNTDTEGS
For the protein B1, the “stoichiometry N” value turned out to be 4.
